Target: the molecule itself
Experiment: SDS-PAGE, immunoblot and MALDI-TOF of purified and depolymerized pili (self-assembly)

B1: PilA pilin subunit of Geobacter sulfurreducens (mature PilA, ca. 6.5-7 kDa band from octyl-glucoside-depolymerized pili) (other)
chain: FTLIELLIVVAIIGILAAIAIPQFSAYRVKAYNSAASSDLRNLKTALESAFADDQTYPPES
notes: Native protein from strain PCA, denatured on SDS-PAGE and blotted; also called nanowire pilin subunit; PilA band
  binding result: binds

Source: US20120053320A1 (BOARD OF TRUSTEES OF MICHIGAN STATE UNIVERSITY, published 2012)
